Data taken from patent publication US20220196676A1 (NORDIC BIOSCIENCE A S, published 2022).

What was measured:
[1] = target: T1, elongated peptide SFSGYLLYPMA; experiment: C8-C competitive ELISA with HRP-labelled 13G5
T1 construct: Selection peptide with one more alanine at the C-terminus; synthetic (Chinese Peptide Company); also called elongated peptide (one additional amino acid)
T1 peptide: SFSGYLLYPMA
Protocol: (§1) ELISA-plates used for the assay development were Streptavidin-coated from Roche (cat.: 11940279). All ELISA plates were analyzed with the ELISA reader from Molecular Devices, SpectraMax M, (CA, USA). We labelled the selected monoclonal antibody with horseradish peroxidase (HRP) using the Lightning link HRP labelling kit according to the instructions of the manufacturer (Innovabioscience, Babraham, Cambridge, UK). A 96-well streptavidin plate was coated with biotinylated synthetic peptide biotin-[…] (SEQ ID NO: 25) (Chinese Peptide Company, China) dissolved in assay buffer (50 mM Trizma, 0.46 mM Tween 20, 0.08 mM Phenol Red, 34 mM NaCl, 0.36% Bronidox L5, 1% BSA, pH 7.4) and incubated 30 minutes at 20° C. 20 μL of standard peptide or samples diluted in assay buffer were added to appropriate wells, followed by 100 μL of HRP conjugated monoclonal antibody 13G5, and incubated 20 hour at 4° C. Finally, 100 μL tetramethylbenzinidine (TMB) (Kem-En-Tec cat.4380H) was added and the plate was incubated 15 minutes at 20° C. in the dark. All the above incubation steps included shaking at 300 rpm. After each incubation step the plate was washed five times in washing buffer (20 mM Tris, 50 mM NaCl). The TMB reaction was stopped by adding 100 μL of stopping solution (1% H₂SO₄) and measured at 450 nm with 650 nm as the reference. […]

[2] = target: T2, nonsense peptide YLSGPFMSYL; experiment: C8-C competitive ELISA with HRP-labelled 13G5
T2 construct: Control peptide of the C8-C specificity test; also called nonsense peptide (C8-C)
T2 peptide: YLSGPFMSYL
Protocol: as §1

B1: monoclonal antibody NB683-13G5 (antibody, mouse IgG1, kappa, V domains shown)
VH: EVLLQQSGPELEKPGASVKISCKASGYSLTDYNMNWVKQSDGKSLEWIGIIDPNYGDTNYNQKFKDKATLTVDKSSNTAHMQLKSLTSDDSAVYYCARSGYYGNSHYGLDYWGQGTSVTVSS
VL: QIVLTQSPAIMSASPGERVTMTCSVSSSVGYIHWYQQKSGTSPKRWISDTSKLASGVPSRFSGSGSGASYSLTIDRVEAEDAATYYCQQWSSNPPTFGGGTKLEMKR
notes: also called clone 13G5; monoclonal antibody 13G5
binding result [1]: no binding | binding result [2]: no binding
